Laboratory results as given in patent US20220267377A1.
Non-standard residues stand in square brackets, D forms with d. Primed or numbered codes have the meaning given here. No end group written: not given here. *: point of attachment. PEG8′ = polyethylene glycol linker with an average of 8 ethylene glycol units; fluorPhe = fluorinated phenylalanine; Palmitoyl = CCCCCCCCCCCCCCCC(=O)*; Tic = O=C(O)[C@@H]1Cc2ccccc2CN1; Aad = N[C@@H](CCCC(=O)O)C(=O)O; Nle = CCCC[C@H](N)C(=O)O; Nva = CCC[C@H](N)C(=O)O

T1: human Chemokine-like receptor 1, CMKLR1 (ProLink (PK) tagged GPCR in PathHunter β-Arrestin cells) (human) (UniProt Q99788)
T1 sequence: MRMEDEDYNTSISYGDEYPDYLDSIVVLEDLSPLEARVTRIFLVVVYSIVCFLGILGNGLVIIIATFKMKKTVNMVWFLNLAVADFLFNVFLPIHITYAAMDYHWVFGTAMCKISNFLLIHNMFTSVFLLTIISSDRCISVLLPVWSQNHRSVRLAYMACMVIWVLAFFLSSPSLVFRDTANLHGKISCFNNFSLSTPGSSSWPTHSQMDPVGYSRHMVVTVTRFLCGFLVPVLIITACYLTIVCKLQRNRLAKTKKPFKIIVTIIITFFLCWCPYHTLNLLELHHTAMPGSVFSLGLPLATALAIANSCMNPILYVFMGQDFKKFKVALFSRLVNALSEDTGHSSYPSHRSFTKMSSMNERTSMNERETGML

B1: OK-106 (peptide)
peptide: {Palmitoyl-PEG8′}-AAFY[Nle]PTQFA[Tic][dA]
B2: OK-109 (peptide)
peptide: {Palmitoyl-PEG8′}-AG[dY]F[Nle]P[dS][Aad]FA[Tic][dA]
B3: OK-115 (peptide)
peptide: {Palmitoyl-PEG8′}-AGFF[Nle]PSQFA[Tic][dA]
B4: OK-114 (peptide)
peptide: {Palmitoyl-PEG8′}-AG[dY]F[Nle]P[dS]QFA[Tic][dS]
B5: OK-103 (peptide)
peptide: {Palmitoyl-PEG8′}-AAYF[Nle]PSQFA[Tic][dA]
B6: OK-104 (peptide)
peptide: {Palmitoyl-PEG8′}-AAFY[Nle]PSQYA[Tic][dA]
B7: OK-111 (peptide)
peptide: {Palmitoyl-PEG8′}-[dA]G[dY]F[Nle]P[dS][Aad]F[dA][Tic][dA]
B8: OK-107 (peptide)
peptide: {Palmitoyl-PEG8′}-AAYF[Nle]PSQY[dA]F[dA]
B9: OK-102 (peptide)
peptide: {Palmitoyl-PEG8′}-[dA]G[dY]F[Nle]P[dS]QF[dA][Tic][dA]
B10: OK-112 (peptide)
peptide: {Palmitoyl-PEG8′}-[dA]G[dY]F[Nle]P[dS]Q[fluorPhe][dA][Tic][dA]
modifications: also: fluorPhe9: fluorine position not given here
B11: OK-101 (peptide)
peptide: {Palmitoyl-PEG8′}-GG[dY]FLP[dS]QF[dA][Tic]S
B12: OK-113 (peptide)
peptide: {Palmitoyl-PEG8′}-[Nva]G[dY]F[Nle]P[dS]QF[dA][Tic][dA]
B13: OK-105 (peptide)
peptide: {Palmitoyl-PEG8′}-AGYF[Nle]PTNFA[Tic][dA]
B14: OK-116 (peptide)
peptide: {Palmitoyl-PEG8′}-GGFF[Nle]PSQFA[Tic][dS]

Target: T1, human Chemokine-like receptor 1, CMKLR1 (ProLink (PK) tagged GPCR in PathHunter β-Arrestin cells) (human)

EC50, PathHunter β-Arrestin recruitment assay, agonist format [nM] | Binder
32.5 | B1
< 0.5 | B2
12.4 | B3
< 0.5 | B4
43 | B5
2.6 | B6
15 | B7
1710 | B8
2.3 | B9
1.4 | B10
2.6 | B11
< 0.5 | B12
203 | B13
63.9 | B14
